Two substances from publication doi:10.1101/2025.04.14.648684 can be followed below.

Usually stoichiometry N stands for a count of units in the complex or per binding partner.

Experiment [1] addresses All4144 (GrpE homolog of Anabaena sp. PCC 7120), full length (Anabaena sp. PCC7120). The experiment can be described thus: cross-linking.
For experiment [2], the target named is All4144(68–214), N-terminal deletion mutant of All4144 lacking the HTH domain (Anabaena sp. PCC7120). The experiment can be described thus: cross-linking.

In experiment [1], “All4144 (GrpE homolog of Anabaena sp. PCC 7120), full length (natural protein)” gave a stoichiometry N of 2. As for “All4144(68–214), N-terminal deletion mutant of All4144 lacking the HTH domain (domain or fragment)”, the stoichiometry N in experiment [2] was 2.
